± gives the standard deviation of the averaged measurements.
Assays:
[1] = test system: Saccharomyces cerevisiae; assay: protein stability index of tFT-peptide fusion (C-terminal peptide) (PSI (0-1 scale)); higher = more stable (slower turnover)
Procedure: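 MPS profiling in S. cerevisiae of the tFT-X12 degron library: putative degron peptides plus stable controls, 12 aa, fused to the C-terminus of a sfGFP-mCherry timer. Cells are FACS-sorted into 8 mCherry/sfGFP bins and deep-sequenced. PSI runs from 0 (unstable) to 1 (stable). Backgrounds are wild type, das1Δ and doa10Δ at 30 °C, and wild type, das1Δ, cdc34-1 and cdc53-1 at 37 °C; 2-3 technical replicates each.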

[2] = test system: Saccharomyces cerevisiae; assay: as above; conditions: genetic background: wild type; temperature: 30 C
[3] = genetic background: cdc34-1, temperature: 37 C
[4] = genetic background: cdc53-1, temperature: 37 C
[5] = genetic background: das1 deletion, temperature: 30 C
[6] = genetic background: das1 deletion, temperature: 37 C
[7] = genetic background: doa10 deletion, temperature: 30 C
[8] = genetic background: wild type, temperature: 30 C
[9] = genetic background: wild type, temperature: 37 C
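Further: PSI is a weighted mean of sequencing reads over stability bins, variants kept only with over 10 reads, mCherry proximal and sfGFP distal, peptide attached via GGGS linker.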

Sequence	protein stability index [1, 3]	protein stability index [1, 4]	protein stability index [1, 5]	protein stability index [1, 6]	protein stability index [1, 7]	protein stability index [1, 8]	protein stability index [1, 9]	protein stability index [2]
PVILISWQLRCY	0.018 ± 0.0019	0.0284 ± 0.0013	0.0318 ± 0.01	0.049 ± 0.011	0.0188 ± 0.0012	0.0174 ± 0.0032	0.0417 ± 0.0029	0.0229 ± 0.026
PVPPRVNLLRVS	0.619 ± 0.034	0.6641 ± 0.0053	0.542 ± 0.028	0.6735 ± 0.0053	0.215 ± 0.0024	0.263 ± 0.031	0.475 ± 0.011	0.3959 ± 0.0035
PVWLSFHFFLCA	0.426 ± 0.041	0.48 ± 0.011	0.369 ± 0.019	0.509 ± 0.013	0.321 ± 0.02	0.332 ± 0.017	0.469 ± 0.0063	0.44 ± 0.061
QIDYSVYIFALG	0.4309 ± 0.00032	0.493 ± 0.036	0.279 ± 0.03	0.4672 ± 0.0007	0.261 ± 0.0014	0.302 ± 0.023	0.454 ± 0.0065	0.371 ± 0.026
QRFASFFFLHLS	0.411 ± 0.069	0.504 ± 0.061	0.585 ± 0.012	0.6374 ± 0.0022	0.157 ± 0.028	0.142 ± 0.036	0.251 ± 0.011	0.227 ± 0.0046
QRTNTIINKRIV	0.704 ± 0.036	0.753 ± 0.016	0.623 ± 0.028	0.736 ± 0.012	0.478 ± 0.03	0.477 ± 0.028	0.705 ± 0.041	0.565 ± 0.096
RALSLPPLLLVL	0.386 ± 0.013	0.443 ± 0.038	0.319 ± 0.013	0.48 ± 0.011	0.338 ± 0.029	0.326 ± 0.029	0.4351 ± 0.0017	0.423 ± 0.023
RCIFYHSPVLCL	0.469 ± 0.022	0.515 ± 0.022	0.399 ± 0.023	0.51 ± 0.0089	0.365 ± 0.0064	0.398 ± 0.018	0.511 ± 0.041	0.449 ± 0.02
RCQILSYCLLFV	0.4186 ± 0.0033	0.42 ± 0.017	0.34 ± 0.025	0.477 ± 0.016	0.381 ± 0.025	0.33 ± 0.024	0.4523 ± 0.0013	0.407 ± 0.012
RCSLRLRFIFVR	0.0761 ± 0.024	0.0507 ± 0.018	0.128 ± 0.019	0.159 ± 0.0038	0.254 ± 0.024	0.104 ± 0.022	0.116 ± 0.0027	0.166 ± 0.0029
RFFFASRYIECF	0.181 ± 0.0096	0.173 ± 0.027	0.216 ± 0.014	0.354 ± 0.013	0.187 ± 0.0019	0.22 ± 0.036	0.281 ± 0.028	0.416 ± 0.11
RFWFTFYLIAVF	0.0612 ± 0.029	0.0779 ± 0.017	0.109 ± 0.031	0.203 ± 0.0098	0.0617 ± 0.016	0.0761 ± 0.023	0.163 ± 0.081	0.103 ± 0.0027
RGWGGGTWVKMG	0.592 ± 0.011	0.72324 ± 0.00012	0.664 ± 0.018	0.767 ± 0.013	0.113 ± 0.019	0.121 ± 0.015	0.203 ± 0.004	0.3012 ± 0.0016
RGYSAIWGCKMN	0.619 ± 0.097	0.742 ± 0.045	0.654 ± 0.0072	0.74 ± 0.011	0.184 ± 0.021	0.228 ± 0.018	0.529 ± 0.077	0.3812 ± 0.0021
RIIDRVSRLIML	0.765 ± 0.026	0.826 ± 0.019	0.689 ± 0.034	0.765 ± 0.015	0.453 ± 0.021	0.482 ± 0.034	0.627 ± 0.032	0.543 ± 0.089
RKFRAWIRITRT	0.627 ± 0.042	0.725 ± 0.031	0.635 ± 0.022	0.71526 ± 0.00022	0.219 ± 0.01	0.247 ± 0.048	0.471 ± 0.025	0.377 ± 0.013
RLCKGQKYTKIN	0.597 ± 0.014	0.718 ± 0.02	0.659 ± 0.023	0.707 ± 0.034	0.0852 ± 0.02	0.105 ± 0.026	0.155 ± 0.043	0.105 ± 0.015
RLRWLSPMTHVG	0.634 ± 0.013	0.7337 ± 0.0061	0.666 ± 0.025	0.726 ± 0.024	0.263 ± 0.0086	0.286 ± 0.016	0.5802 ± 0.0019	0.463 ± 0.012
RLSGACILLSLV	0.634 ± 0.045	0.694 ± 0.015	0.553 ± 0.03	0.681 ± 0.0082	0.217 ± 0.0063	0.259 ± 0.022	0.439 ± 0.026	0.388 ± 0.081
RLSLCLAVLFLV	0.433 ± 0.062	0.574 ± 0.035	0.564 ± 0.035	0.6468 ± 0.0032	0.116 ± 0.0062	0.126 ± 0.0059	0.146 ± 0.009	0.205 ± 0.035

Sequence	protein stability index [1, 3]	protein stability index [1, 4]	protein stability index [1, 5]	protein stability index [1, 6]	protein stability index [1, 7]	protein stability index [1, 8]	protein stability index [1, 9]	protein stability index [2]
RPSHTSVYRLLH	0.553 ± 0.061	0.677 ± 0.054	0.655 ± 0.045	0.706 ± 0.019	0.114 ± 0.019	0.148 ± 0.0086	0.337 ± 0.17	0.2545 ± 0.0022
RRLAVWCDFRSL	0.684 ± 0.054	0.75155 ± 0.00053	0.663 ± 0.018	0.7472 ± 0.00055	0.416 ± 0.0061	0.454 ± 0.035	0.653 ± 0.0095	0.45 ± 0.012
RRPVHTHTSVSP	0.7449 ± 0.00016	0.742 ± 0.05	0.652 ± 0.026	0.733 ± 0.0094	0.658 ± 0.022	0.6561 ± 0.0035	0.701 ± 0.012	0.606 ± 0.25
RRRGIYARASVV	0.636 ± 0.018	0.728 ± 0.019	0.647 ± 0.019	0.723 ± 0.017	0.249 ± 0.0044	0.276 ± 0.043	0.434 ± 0.023	0.382 ± 0.015
RSITFFPVCLVK	0.316 ± 0.079	0.389 ± 0.06	0.293 ± 0.029	0.491 ± 0.014	0.253 ± 0.021	0.289 ± 0.018	0.426 ± 0.013	0.382 ± 0.016
RSLSFGMVLCYS	0.358 ± 0.027	0.366 ± 0.0079	0.248 ± 0.041	0.4382 ± 0.0025	0.228 ± 0.012	0.253 ± 0.028	0.401 ± 0.012	0.343 ± 0.029
RSLSWCTKRRCC	0.595 ± 0.044	0.7011 ± 0.0057	0.675 ± 0.016	0.71892 ± 0.00035	0.221 ± 0.015	0.226 ± 0.022	0.454 ± 0.013	0.3718 ± 0.00091
RSSGHLLDGRAF	0.697 ± 0.03	0.739 ± 0.011	0.64 ± 0.02	0.752 ± 0.011	0.631 ± 0.029	0.654 ± 0.021	0.7353 ± 0.0026	0.539 ± 0.096
RVGGVVVLGCVG	0.645 ± 0.03	0.711 ± 0.02	0.549 ± 0.013	0.684 ± 0.02	0.555 ± 0.027	0.5598 ± 0.0053	0.67072 ± 0.0004	0.476 ± 0.0028
RVGYSIIIIGIE	0.351 ± 0.026	0.433 ± 0.087	0.312 ± 0.042	0.48295 ± 0.00022	0.244 ± 0.0084	0.303 ± 0.019	0.457 ± 0.029	0.354 ± 0.0038
RVWIVCYHVSSY	0.214 ± 0.016	0.3264 ± 0.00073	0.204 ± 0.024	0.371 ± 0.011	0.196 ± 0.0097	0.207 ± 0.0069	0.349 ± 0.022	0.262 ± 0.076
RWSEHGFLVFLS	0.643 ± 0.022	0.736 ± 0.012	0.664 ± 0.016	0.7408 ± 0.0018	0.156 ± 0.015	0.158 ± 0.015	0.373 ± 0.04	0.301 ± 0.021
SARSYLTERLLA	0.6255 ± 0.0024	0.714 ± 0.016	0.599 ± 0.021	0.721 ± 0.022	0.13 ± 0.018	0.162 ± 0.022	0.239 ± 0.0068	0.252 ± 0.0087
SASPFYLPPPPV	0.709 ± 0.024	0.7371 ± 0.0058	0.679 ± 0.043	0.735 ± 0.017	0.675 ± 0.018	0.671 ± 0.023	0.731 ± 0.012	0.735 ± 0.024
SAVLFLLFVYVR	0.0536 ± 0.0084	0.081 ± 0.012	0.156 ± 0.026	0.234 ± 0.011	0.1678 ± 0.00051	0.14 ± 0.046	0.176 ± 0.023	0.254 ± 0.0093
SCIFVSSYFFVF	0.417 ± 0.0029	0.465 ± 0.057	0.364 ± 0.025	0.506 ± 0.012	0.179 ± 0.0043	0.18 ± 0.02	0.307 ± 0.00077	0.251 ± 0.02
SCLRVYFSVVVS	0.231 ± 0.013	0.295 ± 0.048	0.286 ± 0.037	0.389 ± 0.015	0.258 ± 0.0076	0.288 ± 0.017	0.36 ± 0.027	0.359 ± 0.031
SCLSLALLVFFG	0.442 ± 0.014	0.524 ± 0.031	0.36 ± 0.019	0.523 ± 0.014	0.315 ± 0.0051	0.349 ± 0.02	0.515 ± 0.039	0.411 ± 0.061
SFFFSFFPYFFC	0.6386 ± 0.0014	0.675 ± 0.02	0.606 ± 0.06	0.732 ± 0.023	0.401 ± 0.012	0.394 ± 0.017	0.561 ± 0.015	0.4425 ± 0.0029

— the supplement of paper PMC10724198
